The format of the series is physicochemical. To be noted: n = 3.

These results are taken from publication PMC9191634 (Proceedings of the National Academy of Sciences of the …, 2022).

Regarding “AgTx2: scorpion toxin that binds in the external pore region of K+ channels”, the “partitioning into LUVs” value is reported as “did not partition”.
